Blank lines part the entries; values can stand above or below the molecule they belong to. Where no end group is shown, it is not given here. Alexa488 = Alexa488 fluorophore label
What was measured:
[1] = target: BACE (recombinant human BACE catalytic domain, expressed in CHO cells as BACE-T-IgG, IgG1 removed with thrombin) (human) (UniProt P56817); assay: binding assay without UV light (fluorescence anisotropy); absence of UV light
[2] = target: BACE (recombinant human BACE catalytic domain, expressed in CHO cells as BACE-T-IgG, IgG1 removed with thrombin) (human) (UniProt P56817); assay: fluorescence anisotropy, BACE titrated into 10 nM Molecule Y1 with 10 µM OM99-2; reference: without OM99-2
[3] = target: BACE (recombinant human BACE catalytic domain, expressed in CHO cells as BACE-T-IgG, IgG1 removed with thrombin) (human) (UniProt P56817); assay: fluorescence anisotropy, BACE titrated into 10 nM Molecule Y1 in the presence of 10 µM OM99-2, fit to 1:1 binding (error 1.5032); this table prints 'Kd' without a unit, nM is taken from the concentration axis and the -OM99-2 table
[4] = target: BACE (recombinant human BACE catalytic domain, expressed in CHO cells as BACE-T-IgG, IgG1 removed with thrombin) (human) (UniProt P56817); assay: fluorescence anisotropy binding assay, pH 4.5; comparison of label positions (X, Y1, Z)
[5] = target: BACE (recombinant human BACE catalytic domain, expressed in CHO cells as BACE-T-IgG, IgG1 removed with thrombin) (human) (UniProt P56817); assay: fluorescence anisotropy binding assay
[6] = target: BACE (recombinant human BACE catalytic domain, expressed in CHO cells as BACE-T-IgG, IgG1 removed with thrombin) (human) (UniProt P56817); assay: fluorescence anisotropy, BACE titrated into 10 nM Molecule Y1, no OM99-2, fit to 1:1 binding (error 2.1556); the text prints this value rounded (57 / 58 nM)
[7] = target: BACE (recombinant human BACE catalytic domain, expressed in CHO cells as BACE-T-IgG, IgG1 removed with thrombin) (human) (UniProt P56817); assay: ITC, 25° C., Dulbecco's PBS
[8] = target: BACE (recombinant human BACE catalytic domain, expressed in CHO cells as BACE-T-IgG, IgG1 removed with thrombin) (human) (UniProt P56817); assay: ITC, Dulbecco's PBS, pH 7.0, 25° C.
[9] = target: BACE (recombinant human BACE catalytic domain, expressed in CHO cells as BACE-T-IgG, IgG1 removed with thrombin) (human) (UniProt P56817); assay: ITC, 50 mM NaOAc, pH 4.5, 25° C.
[10] = target: BACE (recombinant human BACE catalytic domain, expressed in CHO cells as BACE-T-IgG, IgG1 removed with thrombin) (human) (UniProt P56817); assay: ITC, 25° C., 50 mM NaOAc, pH 4.5
[11] = target: T1, BACE-1 (T7-BACE1(A14-T454)) (Homo sapiens (Human), UniProt P56817 14-454); assay: X-ray crystallography, peptide soaked into BACE-1/DPH-153979 co-crystal
T1 construct: BACE dimer in the asymmetric unit; also called Construct #1
T1 sequence (P56817 other isoform, or with tags, fused parts or gaps limits assumed): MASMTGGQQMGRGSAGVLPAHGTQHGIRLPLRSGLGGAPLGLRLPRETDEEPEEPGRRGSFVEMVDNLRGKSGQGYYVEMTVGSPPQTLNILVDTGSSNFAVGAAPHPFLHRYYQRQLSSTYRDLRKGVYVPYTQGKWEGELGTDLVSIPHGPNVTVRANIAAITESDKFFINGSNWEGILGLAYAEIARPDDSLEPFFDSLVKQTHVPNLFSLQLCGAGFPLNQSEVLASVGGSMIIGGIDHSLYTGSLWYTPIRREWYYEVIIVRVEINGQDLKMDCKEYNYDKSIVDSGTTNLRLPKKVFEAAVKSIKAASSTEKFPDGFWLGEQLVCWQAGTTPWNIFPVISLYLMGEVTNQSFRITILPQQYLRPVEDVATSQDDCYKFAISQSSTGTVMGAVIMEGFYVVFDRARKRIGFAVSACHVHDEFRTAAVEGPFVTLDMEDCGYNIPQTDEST
Experimental: Crystals appeared overnight and grew to their final dimensions (0.4×0.3×0.2 mm) in about two weeks.
Data were collected at 100° K using a Rigaku R-axis II system mounted on a RU-200 rotating anode generator and processed using HKL2000 (Otwinowski et. al., (1997) Methods in Enzymology, Macromolecular Crystallography, Part A; C. W. Carter, Jr. and R. M. Sweet, Eds.; Academic Press: New York, 276:307-326) (Table 6). The structure was determined by molecular replacement using the program EPMR (Kissinger et. al. (1999) Acta Crystallog. Sect. D, 55:484-491) in space group P2₁ with one BACE dimer per asymmetric unit. The starting model used was a BACE dimer (without inhibitor) from a previously determined structure. […] The active site inhibitor DPH-153979 was built into the electron density using the program QUANTA (Accelrys Software, Inc.) and refinement was carried out using the program CNX (Accelrys Software, Inc.). […] Refinement was not carried out past initial building of YPYFI due to ambiguous exosite peptide density.

[12] = target: BACE (recombinant human BACE catalytic domain, expressed in CHO cells as BACE-T-IgG, IgG1 removed with thrombin) (human) (UniProt P56817); assay: ITC, pH 5.3, 37° C., peptide titrated into CHO BACE
[13] = target: BACE (recombinant human BACE catalytic domain, expressed in CHO cells as BACE-T-IgG, IgG1 removed with thrombin) (human) (UniProt P56817); assay: fluorescence anisotropy competition against Molecule X on BACE, pH 4.5, lower panel; labelled 'Ka(nM)' on the sheet, it is the dissociation constant of the competing ligand; error 337.16; the text prints it rounded (1073 nM)
[14] = target: BACE (recombinant human BACE catalytic domain, expressed in CHO cells as BACE-T-IgG, IgG1 removed with thrombin) (human) (UniProt P56817); assay: fluorescence anisotropy competition against Molecule X, pH 7.1
[15] = target: BACE (recombinant human BACE catalytic domain, expressed in CHO cells as BACE-T-IgG, IgG1 removed with thrombin) (human) (UniProt P56817); assay: ITC, pH 5.3, 37° C., peptide titrated into CHO BACE pre-incubated with a 10-fold excess of OM99-2
[16] = target: BACE (recombinant human BACE catalytic domain, expressed in CHO cells as BACE-T-IgG, IgG1 removed with thrombin) (human) (UniProt P56817); assay: ITC, Dulbecco's PBS, pH 7.1, 25° C.
[17] = target: BACE (recombinant human BACE catalytic domain, expressed in CHO cells as BACE-T-IgG, IgG1 removed with thrombin) (human) (UniProt P56817); assay: fluorescence anisotropy competition against Molecule X on BACE, pH 7.1, upper panel; labelled 'Ka' on the sheet without a unit, it is the dissociation constant of the competing ligand, nM from the axis and the lower table; error 33.456; the text prints it rounded (84 nM)
[18] = target: BACE (recombinant human BACE catalytic domain, expressed in CHO cells as BACE-T-IgG, IgG1 removed with thrombin) (human) (UniProt P56817); assay: fluorescence anisotropy competition against 10 nM Molecule X on BACE, pH 7.1, upper panel
[19] = target: BACE (recombinant human BACE catalytic domain, expressed in CHO cells as BACE-T-IgG, IgG1 removed with thrombin) (human) (UniProt P56817); assay: fluorescence anisotropy competition against Molecule X, pH 4.5
[20] = target: BACE (recombinant human BACE catalytic domain, expressed in CHO cells as BACE-T-IgG, IgG1 removed with thrombin) (human) (UniProt P56817); assay: fluorescence anisotropy, BACE titrated into 10 nM labeled peptide, pH 4.5, 1:1 model
[21] = target: BACE (recombinant human BACE catalytic domain, expressed in CHO cells as BACE-T-IgG, IgG1 removed with thrombin) (human) (UniProt P56817); assay: fluorescence anisotropy, pH 4.5 (value quoted for the labeled EBP used in the truncation screen)
[22] = target: BACE (recombinant human BACE catalytic domain, expressed in CHO cells as BACE-T-IgG, IgG1 removed with thrombin) (human) (UniProt P56817); assay: fluorescence anisotropy, BACE titrated into 10 nM labeled peptide, pH 7.1, 1:1 model
[23] = target: BACE (recombinant human BACE catalytic domain, expressed in CHO cells as BACE-T-IgG, IgG1 removed with thrombin) (human) (UniProt P56817); assay: fluorescence anisotropy binding assay, pH 4.5
[24] = target: BACE (recombinant human BACE catalytic domain, expressed in CHO cells as BACE-T-IgG, IgG1 removed with thrombin) (human) (UniProt P56817); assay: cell-based or functional assay
[25] = target: BACE (recombinant human BACE catalytic domain, expressed in CHO cells as BACE-T-IgG, IgG1 removed with thrombin) (human) (UniProt P56817); assay: fluorescence anisotropy competition against 10 nM Molecule Y1 on BACE, pH 4.5
[26] = target: BACE (recombinant human BACE catalytic domain, expressed in CHO cells as BACE-T-IgG, IgG1 removed with thrombin) (human) (UniProt P56817); assay: fluorescence anisotropy competition against Molecule Y1 on BACE, pH 4.5; labelled 'Ka(nM)' on the sheet, it is the dissociation constant of the competing ligand; error 102.58; the text prints 1197 nM
[27] = target: BACE (recombinant human BACE catalytic domain, expressed in CHO cells as BACE-T-IgG, IgG1 removed with thrombin) (human) (UniProt P56817); assay: fluorescence anisotropy competition against Molecule Y1, pH 4.5

BACE (recombinant human BACE catalytic domain, expressed in CHO cells as BACE-T-IgG, IgG1 removed with thrombin) (human), sequence (P56817 43-460 limits assumed, form in doubt): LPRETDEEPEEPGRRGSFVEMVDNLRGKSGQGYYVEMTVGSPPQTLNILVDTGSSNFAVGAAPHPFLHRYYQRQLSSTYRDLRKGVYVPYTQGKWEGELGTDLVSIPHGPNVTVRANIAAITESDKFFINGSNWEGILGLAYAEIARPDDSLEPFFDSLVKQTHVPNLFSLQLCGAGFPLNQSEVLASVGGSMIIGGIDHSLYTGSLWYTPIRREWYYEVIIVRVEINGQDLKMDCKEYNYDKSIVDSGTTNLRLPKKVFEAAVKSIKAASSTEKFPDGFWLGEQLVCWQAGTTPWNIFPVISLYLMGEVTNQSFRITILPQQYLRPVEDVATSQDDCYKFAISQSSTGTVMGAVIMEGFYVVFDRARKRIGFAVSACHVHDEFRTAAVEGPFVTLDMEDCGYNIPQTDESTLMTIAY

Kd [1]: 100 nM
Molecule: YPYFIPB-Alexa488 (peptide)

Kd [1]: 100 nM
Molecule: YPBFIPL-Alexa488 (peptide)

fold enhancement of affinity in the presence of 10 µM OM99-2 [2]: 5 fold | Kd [3]: 9.59 nM | Kd [4]: 58 nM | Kd [5]: 57 nM | Kd [6]: 57.6 nM
Molecule: YPYFIPL (not fully specified (N-terminus, C-terminus)) [Molecule Y1 (YPYFIPL with C-terminal Alexa488)]

Ka [7]: 1.09e+06 M⁻¹ | Kd [8]: 914 nM | Stoichiometry [8]: 0.71 | TΔS [8]: -9.81 kcal/mol | ΔG [8]: -8.23 kcal/mol | ΔH [8]: -18 kcal/mol | Kd [9]: 1640 nM | Stoichiometry [9]: 0.86 | TΔS [9]: -5.46 kcal/mol | ΔG [9]: -7.9 kcal/mol | ΔH [9]: -13.3 kcal/mol | Ka [10]: 610000 M⁻¹
Molecule: Ac-HWPFFIRS-NH2 [BMS-655507 (Ac-His-Trp-Pro-Phe-Phe-Ile-Arg-Ser)]

binding result [11]: binds
Molecule: YPYFIPL-Alexa488 [BMS-597041 (YPYFIPL-Alexa488 Fluorophore)]

Ka [7]: 1.65e+07 M⁻¹ | n (stoichiometry) [7]: 1.03 | ΔH [7]: -12.9 kcal/mol | Kd [12]: 380 nM | Stoichiometry (mole:mole) [12]: 0.93 mole:mole | T(dS) [12]: -6.8 kcal/mol | ΔG [12]: -9.1 kcal/mol | ΔH [12]: -15.9 kcal/mol | Kd [13]: 1070 nM | Kd [14]: 84 nM | Kd [15]: 280 nM | Stoichiometry (mole:mole) [15]: 0.96 mole:mole | T(dS) [15]: -5.7 kcal/mol | ΔG [15]: -9.3 kcal/mol | ΔH [15]: -15 kcal/mol | Kd [16]: 61 nM | Kd [17]: 84.2 nM | IC50 (read off the curve) [18]: 500 nM | Kd [19]: 1070 nM
Molecule: Ac-NLTTYPYFIPLP-NH2

Kd [20]: 904 nM | Kd [21]: 1000 nM | Kd [22]: 139 nM | Kd [23]: 903 nM
Molecule: NLTTYPYFIPLP (also: Alexa488 label, position shown only) [Molecule X (… labeled with Alexa488)]

Kd [5]: 62 nM
Molecule: YPYFIPL (not fully specified (N-terminus, C-terminus)) [Molecule Y4]

Kd [5]: 48 nM | IC50, inhibition of the proteolytic activity of BACE (cleavage of MCA-…(-dnp)-COOH, HPLC) [24]: 731 nM
Molecule: YPYFIPL (not fully specified (N-terminus, C-terminus)) [Molecule Y3]

Ka [7]: 8.86e+06 M⁻¹ | n (stoichiometry) [7]: 1.06 | ΔH [7]: -11.8 kcal/mol | Kd [16]: 113 nM
Molecule: Ac-ALYPYFLPISAK-NH2

IC50 (read off the curve) [25]: 3000 nM | Kd [26]: 1200 nM | Kd [27]: 1200 nM
Molecule: Ac-YPYFIPL-NH2

Kd [5]: 92 nM
Molecule: YPYFIPL (not fully specified (N-terminus, C-terminus)) [Molecule Y2]

Source: patent US20070149763A1 (Bristol-Myers Squibb, published 2007)
